In patent US20200010567A1 (NEURIMMUNE, published 2020):

B1: NI-308.16C10 (antibody, V domains shown)
VH: EVQLVETGGGVVQPGMSLSLSCAATGFTFSSYGMHWVRQGPGKGPEWVAGIWYDGTNKYYGDSVTGRVTISRDNSKNTLFLQMINVRVEDTAVYYCVKDAERVQKWASYIMDVWGQGTTVTVSS
VL: EIVLTQSPGILSLSRGNRVALSCRASRSVNSSYLNWYQQKPGQAPRLLIYGASKRATGISDRFRGTGSGTDFTLTVARLEPEDIAVYYCQHYGAFGQGTKLEIK
notes: Recombinant complete human IgG1, kappa
B2: NI-308.46F8 (antibody, V domains shown)
VH: QVQLVESGGGVVRPGGSLRLSCTASGFTFDEYGMSWVRQVPGKGLEWVSGINWNGATTRYADSVKGRFTISRDNAKNSLYLQMNSLRAEDTALYHCARDGCRNTSCYIWDWFDPWGQGTLVTVSS
VL: CQSVLTQPPSVSAAPGQKVTISCSGSSSNIGNNYVCWYQNLPGTAPKLLIYDDNKRPSGIPDRFSGSKSGTSATLGITGLQTGDEADYYCGTWDSSLSVVVFGGGTKLTVL

Columns and labels:
[1] = target: T1, BSA-coupled (GR)15 DPR protein peptide (bovine, UniProt P02769 25-607, conjugated via a bifunctional linker (SMCC) to bovine serum albumin); assay: Western blot of BSA-coupled peptides
T1 construct: also called BSA-(GR)15
Description: (§1) Resolved proteins were then electroblotted (Novex® Semi-Dry Blotter, 1 h, 25V) on methanol-activated PVDF membranes (Immobilon®-P Transfer Membrane, Merck & Cie, Schaffhausen, Switzerland) by the use of Novex® NuPAGE® transfer buffer 2× (Life Technologies Europe B.V., Zug, Switzerland). Non-specific binding sites were blocked overnight at 4° C. (or alternatively for 1 h at room temperature) with PBS/0.1% Tween®-20 containing 2% BSA (Sigma-Aldrich, Buchs, Switzerland) (PBST). […] Membranes were washed three times in PBST for 15 min at RT and then incubated with a donkey anti-human IgG Fcγ-specific antibody conjugated with HRP (1:20000 or 1:10000 dilution, Jackson ImmunoResearch Laboratories, Inc., West Grove, USA) for 1 h at room temperature. Antibody binding was determined by membrane development using ECL and ImageQuant 350 detection (GE Healthcare, Otelfingen, Switzerland).
(§2) The binding specificity of the human-derived antibodies to BSA-coupled C9orf72 dipeptide repeat proteins (GA)₁₅, (GP)₁₅, (GR)₁₅, (PA)₁₅ and (PR)₁₅ was determined by Western blot analysis.

[2] = target: T2, BSA-coupled (GP)15 DPR protein peptide (bovine, conjugated via a bifunctional linker (SMCC) to bovine serum albumin); assay: Western blot of BSA-coupled peptides
T2 construct: also called BSA-(GP)15
Description: as §1, §2

[3] = target: T3, BSA-coupled (PA)15 DPR protein peptide (bovine, UniProt P02769 25-607, conjugated via a bifunctional linker (SMCC) to bovine serum albumin); assay: Western blot of BSA-coupled peptides
T3 construct: also called BSA-(PA)15
Description: as §1, §2

[4] = target: T4, BSA-coupled (PR)15 DPR protein peptide (bovine, conjugated via a bifunctional linker (SMCC) to bovine serum albumin); assay: indirect ELISA, BSA-coupled peptide coated, antibody titrated [also D00016 FIG. 3M]
T4 construct: also called BSA-(PR)15
Description: (§3) In brief, dipeptide repeat proteins were synthesized and purified by Schafer-N(Copenhagen, Denmark): (GA)₁₅: H-CHHHHHH(GA)₁₅-OH; (GP)₁₅: H-C(GP)₁₅-OH; (GR)₁₅: H-C(GR)₁₅-OH; (PA)₁₅: H-C(PA)₁₅-OH; (PR)₁₅: H—C(PR)₁₅-OH. DPR protein peptides were then conjugated via a bifunctional linker (SMCC) to bovine serum albumin (BSA). 96-well microplates (Corning Incorporated, Corning, USA) were coated with BSA-coupled or -uncoupled dipeptide repeat protein peptides at a concentration of either 5 μg/ml or 20 μg/ml in coating buffer (15 mM Na₂CO₃, 35 mM NaHCO₃, pH 9.42). Non-specific binding sites were blocked for 1 h at room temperature with PBS/0.1% Tween®-20 containing 2% BSA (Sigma-Aldrich, Buchs, Switzerland). Primary antibodies were diluted to the indicated concentrations and incubated 1 h at room temperature, followed by incubation with a donkey anti-human IgG Fcγ-specific antibody conjugated with HRP (Jackson ImmunoResearch Laboratories, Inc., West Grove, USA). Binding was determined by measurement of HRP activity in a standard colorimetric assay. EC₅₀ values were estimated by non-linear regression using GraphPad Prism software (San Diego, USA).

(PA)15: H-C(PA)15-OH [5] = target: T5, (PA)15: H-C(PA)15-OH; assay: indirect ELISA, uncoupled peptide coated, antibody titrated [also D00011 FIG. 2M]
T5 construct: synthetic, not coupled to BSA; also called poly-PA DPR protein peptide
T5 peptide: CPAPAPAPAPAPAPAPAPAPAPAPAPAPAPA
Description: as §3, with “(PR)₁₅: H—C(PR)₁₅-OH. 96-well microplates” for “(PR)₁₅: H—C(PR)₁₅-OH. DPR protein peptides were then conjugated via a bifunctional linker (SMCC) to bovine serum albumin (BSA). 96-well microplates”, “coated with dipeptide repeat” for “coated with BSA-coupled or -uncoupled dipeptide repeat”, “and incubated for 1 h” for “and incubated 1 h”, “Diego, USA). The binding specificity and EC₅₀ of human-derived antibodies for C9orf72 dipeptide repeat protein peptides (GA)₁₅, (GP)₁₅, (GR)₁₅, (PA)₁₅ and (PR)₁₅ were determined by indirect ELISA.” for “Diego, USA).”

[6] = target: T6, (GA)15: H-CHHHHHH(GA)15-OH; assay: as above
T6 construct: synthetic, not coupled to BSA; also called poly-GA DPR protein peptide
T6 peptide: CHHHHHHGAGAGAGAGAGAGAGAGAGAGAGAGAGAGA
Description: as §3, with “(PR)₁₅: H—C(PR)₁₅-OH. 96-well microplates” for “(PR)₁₅: H—C(PR)₁₅-OH. DPR protein peptides were then conjugated via a bifunctional linker (SMCC) to bovine serum albumin (BSA). 96-well microplates”, “coated with dipeptide repeat” for “coated with BSA-coupled or -uncoupled dipeptide repeat”, “and incubated for 1 h” for “and incubated 1 h”, “Diego, USA). The binding specificity and EC₅₀ of human-derived antibodies for C9orf72 dipeptide repeat protein peptides (GA)₁₅, (GP)₁₅, (GR)₁₅, (PA)₁₅ and (PR)₁₅ were determined by indirect ELISA.” for “Diego, USA).”

(PR)15: H-C(PR)15-OH = target: T7, (PR)15: H-C(PR)15-OH; assay: indirect ELISA, uncoupled peptide coated, antibody titrated [also D00016 FIG. 3M]
T7 construct: synthetic, not coupled to BSA; also called poly-PR DPR protein peptide
T7 peptide: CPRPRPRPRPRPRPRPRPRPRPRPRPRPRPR
Description: as §3

(GP)15: H-C(GP)15-OH = target: T8, (GP)15: H-C(GP)15-OH; assay: indirect ELISA, coated peptide
T8 construct: synthetic, not coupled to BSA; also called poly-GP DPR protein peptide
T8 peptide: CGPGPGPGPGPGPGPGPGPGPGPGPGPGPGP
Description: as §3, with “(PR)₁₅: H—C(PR)₁₅-OH. 96-well microplates” for “(PR)₁₅: H—C(PR)₁₅-OH. DPR protein peptides were then conjugated via a bifunctional linker (SMCC) to bovine serum albumin (BSA). 96-well microplates”, “coated with dipeptide repeat” for “coated with BSA-coupled or -uncoupled dipeptide repeat”, “and incubated for 1 h” for “and incubated 1 h”, “Diego, USA). The binding specificity and EC₅₀ of human-derived antibodies for C9orf72 dipeptide repeat protein peptides (GA)₁₅, (GP)₁₅, (GR)₁₅, (PA)₁₅ and (PR)₁₅ were determined by indirect ELISA.” for “Diego, USA).”

(GR)15: H-C(GR)15-OH [7] = target: T9, (GR)15: H-C(GR)15-OH; assay: indirect ELISA, coated peptide
T9 construct: synthetic, not coupled to BSA; also called poly-GR DPR protein peptide
T9 peptide: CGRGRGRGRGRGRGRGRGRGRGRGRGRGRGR
Description: as §3, with “(PR)₁₅: H—C(PR)₁₅-OH. 96-well microplates” for “(PR)₁₅: H—C(PR)₁₅-OH. DPR protein peptides were then conjugated via a bifunctional linker (SMCC) to bovine serum albumin (BSA). 96-well microplates”, “coated with dipeptide repeat” for “coated with BSA-coupled or -uncoupled dipeptide repeat”, “and incubated for 1 h” for “and incubated 1 h”, “Diego, USA). The binding specificity and EC₅₀ of human-derived antibodies for C9orf72 dipeptide repeat protein peptides (GA)₁₅, (GP)₁₅, (GR)₁₅, (PA)₁₅ and (PR)₁₅ were determined by indirect ELISA.” for “Diego, USA).”

[8] = target: T10, transactive response DNA binding protein 43 (UniProt Q13148 1-414, limits assumed); assay: indirect ELISA, coated protein
T10 construct: also called TDP-43
Description: (§4) 96-well microplates (Corning) were coated with different target proteins at a concentration of 1-10 μg/ml in coating buffer (15 mM Na₂CO₃, 35 mM NaHCO₃, pH 9.42). Non-specific binding sites were blocked for 1 h at RT with PBS/0.1% Tween®-20 containing 2% BSA (Sigma-Aldrich, Buchs, Switzerland). […] Binding was determined using donkey anti-human IgG Fcγ-specific antibody conjugated with HRP (Jackson ImmunoResearch Laboratories, Inc., West Grove, USA) followed by measurement of HRP activity in a standard colorimetric assay. Signals for target protein were calculated in fold increase above median.

[9] = target: T11, full-length amyloid precursor protein (UniProt P05067 18-770, limits assumed); assay: indirect ELISA, coated protein
T11 construct: also called flAPP
Description: as §4

Tau = Tau (UniProt P10636-8 1-441, limits assumed); assay: indirect ELISA, coated protein
Description: as §4

transthyrethin = transthyrethin (UniProt P02766 21-147); assay: indirect ELISA, coated protein
Description: as §4

(GR)15: H-C(GR)15-OH [10] = target: T9, (GR)15: H-C(GR)15-OH; assay: indirect ELISA, coated uncoupled peptide
Description: as §3, with “(PR)₁₅: H—C(PR)₁₅-OH. 96-well microplates” for “(PR)₁₅: H—C(PR)₁₅-OH. DPR protein peptides were then conjugated via a bifunctional linker (SMCC) to bovine serum albumin (BSA). 96-well microplates”, “coated with dipeptide repeat” for “coated with BSA-coupled or -uncoupled dipeptide repeat”, “and incubated for 1 h” for “and incubated 1 h”, “Diego, USA). The binding specificity and EC₅₀ of human-derived antibodies for C9orf72 dipeptide repeat protein peptides (GA)₁₅, (GP)₁₅, (GR)₁₅, (PA)₁₅ and (PR)₁₅ were determined by indirect ELISA.” for “Diego, USA).”

[11] = target: T2, BSA-coupled (GP)15 DPR protein peptide; assay: Western blot, BSA-coupled peptide
Description: as §1, §2

[12] = target: T3, BSA-coupled (PA)15 DPR protein peptide; assay: Western blot, BSA-coupled peptide
Description: as §1, §2

(GR)15: H-C(GR)15-OH [13] = target: T9, (GR)15: H-C(GR)15-OH; assay: indirect ELISA, uncoupled peptide coated, antibody titrated [also D00015 FIG. 3J]
Description: as §3

(PA)15: H-C(PA)15-OH [14] = target: T5, (PA)15: H-C(PA)15-OH; assay: indirect ELISA, coated peptide
Description: as §3, with “(PR)₁₅: H—C(PR)₁₅-OH. 96-well microplates” for “(PR)₁₅: H—C(PR)₁₅-OH. DPR protein peptides were then conjugated via a bifunctional linker (SMCC) to bovine serum albumin (BSA). 96-well microplates”, “coated with dipeptide repeat” for “coated with BSA-coupled or -uncoupled dipeptide repeat”, “and incubated for 1 h” for “and incubated 1 h”, “Diego, USA). The binding specificity and EC₅₀ of human-derived antibodies for C9orf72 dipeptide repeat protein peptides (GA)₁₅, (GP)₁₅, (GR)₁₅, (PA)₁₅ and (PR)₁₅ were determined by indirect ELISA.” for “Diego, USA).”

T3 sequence (P02769 25-607 limits assumed): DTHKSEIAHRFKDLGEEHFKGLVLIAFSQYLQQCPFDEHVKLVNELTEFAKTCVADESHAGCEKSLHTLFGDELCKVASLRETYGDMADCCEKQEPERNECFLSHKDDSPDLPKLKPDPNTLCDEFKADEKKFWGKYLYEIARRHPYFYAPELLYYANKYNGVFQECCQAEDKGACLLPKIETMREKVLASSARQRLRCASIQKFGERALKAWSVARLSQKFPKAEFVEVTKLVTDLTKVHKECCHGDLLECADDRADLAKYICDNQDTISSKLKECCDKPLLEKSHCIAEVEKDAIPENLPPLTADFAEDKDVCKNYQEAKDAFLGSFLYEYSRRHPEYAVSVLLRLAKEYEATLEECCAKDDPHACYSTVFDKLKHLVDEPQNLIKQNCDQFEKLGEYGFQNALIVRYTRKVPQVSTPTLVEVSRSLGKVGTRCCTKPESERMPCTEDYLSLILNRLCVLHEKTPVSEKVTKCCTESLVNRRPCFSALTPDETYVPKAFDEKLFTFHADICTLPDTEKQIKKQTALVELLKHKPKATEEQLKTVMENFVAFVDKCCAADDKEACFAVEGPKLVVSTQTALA
T2 sequence (P02769 25-607 limits assumed): as above
T1 sequence (P02769 25-607 limits assumed): as above
T4 sequence (P02769 25-607 limits assumed): as above
T11 sequence (P05067 18-770 limits assumed): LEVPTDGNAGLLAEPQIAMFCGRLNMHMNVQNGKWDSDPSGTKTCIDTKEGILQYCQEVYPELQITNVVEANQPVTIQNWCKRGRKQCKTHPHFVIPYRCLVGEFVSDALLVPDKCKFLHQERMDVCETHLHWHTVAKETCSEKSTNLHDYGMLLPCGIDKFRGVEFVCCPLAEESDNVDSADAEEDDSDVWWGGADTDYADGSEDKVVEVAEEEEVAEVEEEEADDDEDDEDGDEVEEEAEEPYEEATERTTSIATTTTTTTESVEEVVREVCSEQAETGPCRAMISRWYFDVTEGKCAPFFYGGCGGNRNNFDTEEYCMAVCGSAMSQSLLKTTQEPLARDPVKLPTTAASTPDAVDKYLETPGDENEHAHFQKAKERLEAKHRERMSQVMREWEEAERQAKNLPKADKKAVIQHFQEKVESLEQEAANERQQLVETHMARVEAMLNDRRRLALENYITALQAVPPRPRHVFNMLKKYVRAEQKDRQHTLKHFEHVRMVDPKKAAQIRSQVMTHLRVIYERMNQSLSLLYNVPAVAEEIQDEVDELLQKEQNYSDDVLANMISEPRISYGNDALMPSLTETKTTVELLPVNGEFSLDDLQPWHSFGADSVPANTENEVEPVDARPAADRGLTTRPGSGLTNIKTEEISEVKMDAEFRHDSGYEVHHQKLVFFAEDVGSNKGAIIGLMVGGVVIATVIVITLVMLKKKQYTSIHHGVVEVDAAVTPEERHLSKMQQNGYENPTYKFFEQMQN
Chain of Tau (P10636 other isoform, or with tags, fused parts or gaps limits assumed): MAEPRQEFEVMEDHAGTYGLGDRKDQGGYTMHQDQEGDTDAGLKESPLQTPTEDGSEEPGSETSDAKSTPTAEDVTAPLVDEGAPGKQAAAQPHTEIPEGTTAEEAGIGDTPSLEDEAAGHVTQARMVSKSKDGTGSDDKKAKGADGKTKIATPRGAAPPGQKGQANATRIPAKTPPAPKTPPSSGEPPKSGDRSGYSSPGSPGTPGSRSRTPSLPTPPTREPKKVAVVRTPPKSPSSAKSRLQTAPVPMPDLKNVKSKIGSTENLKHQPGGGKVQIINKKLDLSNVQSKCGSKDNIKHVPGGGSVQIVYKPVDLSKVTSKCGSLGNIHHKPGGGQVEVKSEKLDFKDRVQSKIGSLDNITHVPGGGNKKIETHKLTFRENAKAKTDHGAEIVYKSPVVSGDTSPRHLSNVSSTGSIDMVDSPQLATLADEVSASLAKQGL
T10 sequence (Q13148 whole entry): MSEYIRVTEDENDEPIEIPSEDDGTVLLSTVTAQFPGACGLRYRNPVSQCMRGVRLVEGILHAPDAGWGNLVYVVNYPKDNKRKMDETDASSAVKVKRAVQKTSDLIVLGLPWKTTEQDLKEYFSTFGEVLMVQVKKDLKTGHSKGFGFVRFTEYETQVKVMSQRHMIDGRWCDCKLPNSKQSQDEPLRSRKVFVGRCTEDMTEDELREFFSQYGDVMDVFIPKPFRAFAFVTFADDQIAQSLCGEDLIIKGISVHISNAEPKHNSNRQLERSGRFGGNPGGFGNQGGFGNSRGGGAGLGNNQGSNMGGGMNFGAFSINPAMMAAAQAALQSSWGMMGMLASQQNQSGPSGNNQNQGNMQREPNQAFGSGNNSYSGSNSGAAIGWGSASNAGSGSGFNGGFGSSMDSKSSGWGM

Binder | binding result [1] | binding result [2] | binding result [3] | EC50 [4] | binding result ((PA)15: H-C(PA)15-OH [5]) | EC50 [6] | EC50 ((PR)15: H-C(PR)15-OH) | binding result ((GP)15: H-C(GP)15-OH) | binding result ((GR)15: H-C(GR)15-OH [7]) | binding result [8] | binding result [9] | binding result (Tau) | binding result (transthyrethin) | EC50 ((GR)15: H-C(GR)15-OH [10]) | binding result [11] | binding result [12] | EC50 ((GR)15: H-C(GR)15-OH [13]) | binding result ((PA)15: H-C(PA)15-OH [14])
B1 | no binding | no binding | no binding | 91.1 nM | no binding (tested: about 4x10^5 pM (last point)) | 55.1 nM | 3.5 nM | no binding | no binding |  |  |  |  |  |  |  |  | 
B2 |  |  |  |  |  |  |  | no binding |  | no binding (tested: 20 nM) | no binding (tested: 20 nM) | no binding (tested: 20 nM) | no binding (tested: 20 nM) | 40.6 nM | no binding (tested: 10 nM or 100 nM) | no binding (tested: 10 nM or 100 nM) | 90.3 nM | no binding
